# Changes are numbered by the printed parent chain. In names and notes the source's numbering stands.
# B1: T30S_V44P (antibody, human IgG1, kappa, V domains shown)
# VH: EVQLVESGGGLVQPGGSLRLSCAASGFTFSDYYMSWVRQAPGKGLEWLGFIRNKPNGYTTEYSASVKGRFTISRDNSQSSLYLQMNSLKTEDTAVYYCARYTGGGYFDYWGQGTLLTVSS
# VL: DIQMTQSPSSLSASVGDRLTISCRASQDISNYLNWYQQKPGKTPKLLIYYTSRLHSGVPSRFSGSGSGTDYTLTISSLQPEDVATYFCQQGDTLPWTFGQGTKLEIKR
# notes: also called 28G11_H2L3 with HC T30S and LC V44P
# B2: S76N_T43V (antibody, human IgG1, kappa, V domains shown)
# VH: B1 VH with S30T, S79N
# VL: B1 VL with T43V, P44V
# notes: also called 28G11_H2L3 with HC S76N and LC T43V
# B3: L109V_F87Y (antibody, human IgG1, kappa, V domains shown)
# VH: B1 VH with S30T, L116V
# VL: B1 VL with P44V, F87Y
# notes: also called 28G11_H2L3 with HC L109V and LC F87Y
# B4: L48V_F87Y (antibody, human IgG1, kappa, V domains shown)
# VH: B1 VH with S30T, L48V
# VL: B1 VL with P44V, F87Y
# notes: also called 28G11_H2L3 with HC L48V and LC F87Y
# B5: S76N_F87Y (antibody, human IgG1, kappa, V domains shown)
# VH: B1 VH with S30T, S79N
# VL: B1 VL with P44V, F87Y
# notes: also called 28G11_H2L3 with HC S76N and LC F87Y
# B6: S76N_V44P (antibody, human IgG1, kappa, V domains shown)
# VH: B1 VH with S30T, S79N
# VL: B1 VL
# notes: also called 28G11_H2L3 with HC S76N and LC V44P
# B7: N73D_F87Y (antibody, human IgG1, kappa, V domains shown)
# VH: B1 VH with S30T, N76D
# VL: B1 VL with P44V, F87Y
# notes: label to be rechecked; also called 28G11_H2L3 with HC N73D and LC F87Y
# B8: Q75K_T43V (antibody, human IgG1, kappa, V domains shown)
# VH: B1 VH with S30T, Q78K
# VL: B1 VL with T43V, P44V
# notes: also called 28G11_H2L3 with HC Q75K and LC T43V
# B9: L109V_T43V (antibody, human IgG1, kappa, V domains shown)
# VH: B1 VH with S30T, L116V
# VL: B1 VL with T43V, P44V
# notes: also called 28G11_H2L3 with HC L109V and LC T43V
# B10: T30S_Y71F (antibody, human IgG1, kappa, V domains shown)
# VH: B1 VH
# VL: B1 VL with P44V, Y71F
# notes: also called 28G11_H2L3 with HC T30S and LC Y71F
# B11: L48V_WT (antibody, human IgG1, kappa, V domains shown)
# VH: B1 VH with S30T, L48V
# VL: B1 VL with P44V
# notes: also called 28G11_H2L3 with HC L48V
# B12: N73D_V44P (antibody, human IgG1, kappa, V domains shown)
# VH: B1 VH with S30T, N76D
# VL: B1 VL
# notes: also called 28G11_H2L3 with HC N73D and LC V44P
# B13: Q75K_V44P (antibody, human IgG1, kappa, V domains shown)
# VH: B1 VH with S30T, Q78K
# VL: B1 VL
# notes: also called 28G11_H2L3 with HC Q75K and LC V44P
# B14: Q75K_WT (antibody, human IgG1, kappa)
# heavy: not shown
# light: DIQMTQSPSSLSASVGDRLTISCRASQDISNYLNWYQQKPGKTVKLLIYYTSRLHSGVPSRFSGSGSGTDYTLTISSLQPEDVATYFCQQGDTLPWTFGQGTKLEIKRTVAAPSVFIFPPSDEQLKSGTASVVCLLNNFYPREAKVQWKVDNALQSGNSQESVTEQDSKDSTYSLSSTLTLSKADYEKHKVYACEVTHQGLSSPVTKSFNRGEC
# notes: also called 28G11_H2L3 with HC Q75K
# B15: Q75K_L19V (antibody, human IgG1, kappa)
# heavy: not shown
# light: B14 light with L19V
# notes: also called 28G11_H2L3 with HC Q75K and LC L19V
# B16: T30S_F87Y (antibody, human IgG1, kappa, V domains shown)
# VH: B1 VH
# VL: B1 VL with P44V, F87Y
# notes: also called 28G11_H2L3 with HC T30S and LC F87Y
# B17: N73D_Y71F (antibody, human IgG1, kappa, V domains shown)
# VH: B1 VH with S30T, N76D
# VL: B1 VL with P44V, Y71F
# notes: also called 28G11_H2L3 with HC N73D and LC Y71F
# B18: L48V_V44P (antibody, human IgG1, kappa, V domains shown)
# VH: B1 VH with S30T, L48V
# VL: B1 VL
# notes: also called 28G11_H2L3 with HC L48V and LC V44P
# B19: T30S_T43V (antibody, human IgG1, kappa, V domains shown)
# VH: B1 VH
# VL: B1 VL with T43V, P44V
# notes: also called 28G11_H2L3 with HC T30S and LC T43V
# B20: S76N_WT (antibody, human IgG1, kappa, V domains shown)
# VH: B1 VH with S30T, S79N
# VL: B1 VL with P44V
# notes: also called 28G11_H2L3 with HC S76N
# B21: 20E6_H2L1 (antibody, human IgG1, kappa, V domains shown)
# VH: QVQLVQSGAEVKKPGASVKVSCKASGYTFTSYWMHWVRQAPGQGLEWIGRIDPNSGGIKYNEKFKSRVTLTVDKSSSTAYMELSRLRSDDTAVYYCARWDYGGYFDVWGQGTLVTVSS
# VL: B1 VL with L19V, S22T, S30T, T43A, P44V, V83F
# B22: 20E6_H0.2aL1_hIgG1 VH_Y27A (antibody, V domains shown)
# VH: EVQLVQSGAEVKKPGASVKVSCKASGATFTSYWMHWVRQAPGQGLEWMGRIDPQSGGIKYAQKFQGRATLTVDTSTSTAYMELSRLRSDDTAVYYCARWDYGGYFDVWGQGTLVTVSS
# VL: B1 VL with L19V, S22T, S30T, T43A, P44V, V83F
# B23: 20E6_H0.2aL1_hIgG1 VL_R53A (antibody, V domains shown)
# VH: B22 VH with A27Y
# VL: B1 VL with L19V, S22T, S30T, T43A, P44V, R53A, V83F
# B24: 20E6_H0.2aL1_hIgG1 VH_Y32A (antibody, V domains shown)
# VH: B22 VH with A27Y, Y32A
# VL: B1 VL with L19V, S22T, S30T, T43A, P44V, V83F
# B25: 20E6_H0.2aL1_hIgG1 VL_L54A (antibody, V domains shown)
# VH: B22 VH with A27Y
# VL: B1 VL with L19V, S22T, S30T, T43A, P44V, L54A, V83F
# B26: 20E6_H0.2aL1_hIgG1 VL_H55A (antibody, V domains shown)
# VH: B22 VH with A27Y
# VL: B1 VL with L19V, S22T, S30T, T43A, P44V, H55A, V83F
# B27: 20E6_H0.2aL1_hIgG1 VL_R24A (antibody, V domains shown)
# VH: B22 VH with A27Y
# VL: B1 VL with L19V, S22T, R24A, S30T, T43A, P44V, V83F
# B28: 20E6_H0.2aL1_hIgG1 VL_T93A (antibody, V domains shown)
# VH: B22 VH with A27Y
# VL: B1 VL with L19V, S22T, S30T, T43A, P44V, V83F, T93A
# B29: 20E6_H0.2aL1_hIgG1 VL_Q89A (antibody, V domains shown)
# VH: B22 VH with A27Y
# VL: B1 VL with L19V, S22T, S30T, T43A, P44V, V83F, Q89A
# B30: 20E6_H0.2aL1_hIgG1 VL_T51A (antibody, V domains shown)
# VH: B22 VH with A27Y
# VL: B1 VL with L19V, S22T, S30T, T43A, P44V, T51A, V83F
# B31: 20E6_H0.2aL1_hIgG1 VL_I29A (antibody, V domains shown)
# VH: B22 VH with A27Y
# VL: B1 VL with L19V, S22T, I29A, S30T, T43A, P44V, V83F
# B32: 20E6_H0.2aL1_hIgG1 VL_S52A (antibody, V domains shown)
# VH: B22 VH with A27Y
# VL: B1 VL with L19V, S22T, S30T, T43A, P44V, S52A, V83F
# B33: 20E6_H0.2aL1_hIgG1 VL_T30A (antibody, V domains shown)
# VH: B22 VH with A27Y
# VL: B1 VL with L19V, S22T, S30A, T43A, P44V, V83F
# B34: 20E6_H0.2aL1_hIgG1 VL_N31A (antibody, V domains shown)
# VH: B22 VH with A27Y
# VL: B1 VL with L19V, S22T, S30T, N31A, T43A, P44V, V83F
# Target: T1, human LAP-TGFβ1 overexpressed on cells (human, UniProt P01137 30-390)
# T1 construct: HT1080 or P3U1 cells overexpressing wild-type human LAP-TGFβ1; also called HT1080-huB1; HT1080-hβ1
# T1 sequence (P01137 30-390): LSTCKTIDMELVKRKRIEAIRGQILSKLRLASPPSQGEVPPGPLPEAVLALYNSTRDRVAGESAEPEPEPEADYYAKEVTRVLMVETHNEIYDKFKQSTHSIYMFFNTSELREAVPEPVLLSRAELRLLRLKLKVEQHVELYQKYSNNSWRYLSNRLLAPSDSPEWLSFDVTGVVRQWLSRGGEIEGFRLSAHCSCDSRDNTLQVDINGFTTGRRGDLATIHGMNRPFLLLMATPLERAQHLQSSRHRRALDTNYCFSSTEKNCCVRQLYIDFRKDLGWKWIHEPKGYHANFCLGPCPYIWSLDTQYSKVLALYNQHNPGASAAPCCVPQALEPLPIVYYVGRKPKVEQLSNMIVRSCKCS
# Experiment: flow cytometry; black bar HT1080-huB1, grey bar HT1080
row,binding result,Binder
1,binds,B1
2,binds,B2
3,binds,B3
4,binds,B4
5,binds,B5
6,binds,B6
7,no binding,B7
8,binds,B8
9,binds,B9
10,no binding,B10
11,binds,B11
12,no binding,B12
13,binds,B13
14,binds,B14
15,binds,B15
16,binds,B16
17,no binding,B17
18,binds,B18
19,binds,B19
20,binds,B20

# Target: T2, fusion protein of a human IgG1 Fc domain and human LAP-TGFβ1 (human, UniProt P01137 30-390)
# T2 construct: printed both as Fc-huB1 and LAP-TGFβ-Fc; also called Fc-huB1; Fc-human LAP
# T2 sequence (P01137 30-390 limits assumed): as the sequence (P01137 30-390) above
# Experiment: BLI (Octet)
Kd [nM],koff [s⁻¹],kon [M⁻¹ s⁻¹],Binder
0.48,0.000747,1.57e+06,B21

# Target: biotinylated human LAP-TGFβ1 (Example 14) (human, UniProt P01137 30-390, biotinylated, sites not stated)
# Sequence (P01137 30-390 limits assumed): as the sequence (P01137 30-390) above
# Experiment: BLI, antigen on tip, CHO supernatant; ratio to wild type
# Method: A total of 49 single alanine substitutions were made in the heavy and light chain CDRs of the antibody to identify critical residues for human LAP-TGFβ1 binding. In addition, residue A25 in the light chain was substituted with glycine. Plasmid DNA for these variants was transfected into ExpiCHO cells in 1 mL cultures on 24-well plates, along with wells containing no DNA (negative control) and wells transfected with DNA for the wild-type antibody (positive control). IgG concentrations in each well were determined by binding to Protein A-functionalized tips. Tips were dipped into wells containing the supernatants from each culture. IgG concentrations were determined by comparing the rate of signal change for each well against the rate of signal change for a standard curve of purified 20E6_H0.2aL1_hIgG1 antibody diluted into ExpiCHO media. CHO supernatants were diluted to 0.6 μg/mL in media. A streptavidin-functionalized tip was equilibrated in binding buffer (10 mM sodium phosphate, 150 mM sodium chloride, 1% (w/v) bovine serum albumin, 0.05% (w/v) sodium azide, pH 7.4) and then dipped in a 5 μg/mL solution of biotinylated human LAP-TGFβ1 in binding buffer for 60 seconds to load the tip with antigen. The antigen-loaded tip was then washed in binding buffer and placed in the diluted CHO supernatant. The antigen was allowed to bind to antibody for 5 minutes (association phase), and then the tip was moved to binding buffer (dissociation phase). The association and dissociation phases were fit to a 1:1 binding model to determine binding rate constants.
row,"KD,WT/KD,Ala",Binder
1,1.29,B22
2,0.02,B23
3,1,B24
4,0.1,B25
5,0.33,B26
6,0.01,B27
7,0.64,B28
8,0.01,B29
9,0.8,B30
10,0.02,B31
11,0.12,B32
12,1,B33
13,0.48,B34
